# Results from the DeepSol protein solubility set.
# Assay: soluble on expression in E. coli; label from the status in PepcDB or PDB records
row,Sequence,soluble on expression in E. coli
1,MSLRKYPEYTWDLTTIFKDDEAFEAAFKEVENELGKEEQFKGHIGDSAETLYNALELEDTLGTKLEKVYVYAHLKQDQDTTNDKYTGMESRAHQLIIKFSSAWSFLVPEILQIDEDKIQSFVNSYDKLQKFAFDLKLINEKRPHILDAETEKLLTEAQDALSTPSNVYGMFSNADLVFEDAIDKDGNAHPLTQGTFIKYLESDDRKLRESAFRNVYKAYGAHNNTLGATLAGEVKKNVFNARTHNYKTAREKALSNNHIPENVYDNLVKTVHKYLPLLHRYTELRKELLGLDDLKMYDLYTPLIKDIKFEMPYEEAKEWMLKALEPMGEEYLNVVKEGLNNRWVDVYENKGKRSGGYSSGAHLTNPFILLNWSNTISDLYTLVHEFGHSAHSYFSRKFQPSNSSDYTIFVAEVASTCNEALLSDYMDKHLDDEKRLLLLNQELERFRATLFRQTMFAEFEHKIHAIEEAGEPLTPTRMNEEYAKLNKLYFGDSVETDEDISKEWSRIPHFYMNYYVYQYATGYSAAQSLSHQILTEGKPAVDRYINEFLKKGSSNYPIEILKNAGVDMTTPEPIEQACEVFEQKLNAFEKLMKEGHHHHHH,soluble
2,MTLSKRLALLGAQSAITLAKPRGLGSSLGLLDRRPFPYRQFSELTKANGRRAFLVDTLALVRSLEAQGVPSKQAEAITSAITEVLNDSLENVSESFVSKAEMQKIEMIQDSNLSKFKSEVKSSQEHHFTVLQRETEKLRGDIEKMRSELRYEIDKVTAGQRLDLNLERGRIRDELANQNTETTNLTNKLDREIHALRAQLEASKYEVIKYCIGTLVSISAVGLAVLRIMI,not soluble
3,GNWAEITDEISKIYQDNQYKIRQINDVDAVSDKRREALQALFEHTGRNVIVYYSAWLENGRRFSGQSTDFSVNDTDKNSFMTALHKLDQSKGLDLILHTPGGDVAATESLVDYIHALFGQDFRVIVPQLAMSAGTMIALSSKEIVMGKHSSLGPIDPQFNGLPAHGLLEEFEQAKKEVSENPQTAHIWQVILNKYNPTMLGEAKKAIQWSNSMVKQWLEKGMFLDEPDKEEKATRAIKELADHSVTLAHNRHISVSKALELGLNIKELESDPKLQDLVLTLHHLSVIAAQRGPLIKFVVNHDNRGTF,not soluble
4,MTQKRTLLKYGILSLALAAPLSACAFDSLTVIGDSLSDTGNNGRWTWDSGQNKLYDEQLAERYGLELSPSSNGGSNYAAGGATATPELNPQDNTADQVRQWLAKTGGKADHNGLYIHWVGGNDLAAAIAQPTMAQQIAGNSATSAAAQVGLLLDAGAGLVVVPNVPDISATPMLLEAVITAGLGAAAPPALKAALDALAEGATPDFASRQQAIRKALLAAAATVSSNPFIQQLLVEQLLAGYEAAAGQASALTDYYNQMEEKGLEQHGGNIARADINGLFKEILANPQAFGLTNTVGMACPPGVSASACSSAMPGFNASQDYLFADHLHPGPQVHTIIAQYIQSIIAAPVQATYLNQSVQSMAQGSRTTLDSRYQQLRQGENPVGSLGMFGGYSGGYQRYDNNEADGNGNHNNLTVGVDYQLNEQVLLGGLIAGSLDKQHPDDNYRYDARGFQAAVFSHLRAGQAWLDSDLHFLSAKFSNIQRSITLGALRRVEEGETNGRLWGARLTSGYDFVMVPWLTTGPMLQYAWDYSHVNGYSEKLNTSTSMRFGDQNAHSQVGSAGWRLDLRHSIIHSWAQINYRRQFGDDTYVANGGLKSTALTFSRDGKTQDKNWVDIAIGADFPLSATVSAFAGLSQTAGLSDGNQTRYNVGFSARF,not soluble
5,MGSDKIHHHHHHMMGLKAHAMVLEKFNQPLVYKEFEISDIPRGSILVEILSAGVCGSDVHMFRGEDPRVPLPIILGHEGAGRVVEVNGEKRDLNGELLKPGDLIVWNRGITCGECYWCKVSKEPYLCPNRKVYGINRGCSEYPHLRGCYSSHIVLDPETDVLKVSEKDDLDVLAMAMCSGATAYHAFDEYPESFAGKTVVIQGAGPLGLFGVVIARSLGAENVIVIAGSPNRLKLAEEIGADLTLNRRETSVEERRKAIMDITHGRGADFILEATGDSRALLEGSELLRRGGFYSVAGVAVPQDPVPFKVYEWLVLKNATFKGIWVSDTSHFVKTVSITSRNYQLLSKLITHRLPLKEANKALELMESREALKVILYPEG,soluble
6,MTATNKQVILKDYVSGFPTESDFDFTTTTVELRVPEGTNSVLVKNLYLSCDPYMRIRMGKPDPSTAALAQAYTPGQPIQGYGVSRIIESGHPDYKKGDLLWGIVAWEEYSVITPMTHAHFKIQHTDVPLSYYTGLLGMPGMTAYAGFYEVCSPKEGETVYVSAASGAVGQLVGQLAKMMGCYVVGSAGSKEKVDLLKTKFGFDDAFNYKEESDLTAALKRCFPNGIDIYFENVGGKMLDAVLVNMNMHGRIAVCGMISQYNLENQEGVHNLSNIIYKRIRIQGFVVSDFYDKYSKFLEFVLPHIREGKITYVEDVADGLEKAPEALVGLFHGKNVGKQVVVVARE,soluble
7,MIGIVAAFEKVKIPEMGKSFGTGWLPPLPSLKDYTEESAQIPEMAEKLGIPTSRKETKTLELPVSIDFRNWCSPIEDQMDLGSCTAHAGVGVVEYFERRAFGKHIDGSRFFVYKTTRNLMGVKGDTGAWLRNTMGALALCGVPPEKYFPYTSRKTPGPDGEPTFDDEPSSFVYSLADNFEALNYFCHDPQGMNLPPEDVILSVKKYLAAGIPSMFGFYGFPSFKDTDVKGGIPFPGPDERSIWGHAVVAVGYDDNMKIRNTLSNKETTGAFLIRNSWGTAWGDKGYGWLPYEYALNKLEHHHHHH,not soluble
8,MPAILETNPIAIRACILYEVRQKRPIFESFKNFCNAFGNDFMEYREFERWFYRFYHGNEDLDYDMSREPKTASLSELPIEILFKIVENLNFLDRLLLRNVSPCFRSIAEDHVNEVTNISVTSIPNHVHVCFYHESDYTDIICKRVDDDCVITKMSQYEDSKDWKIEGVSHVTVALNYLSRVLKSPKLKLEKLRLDFLEHNKEDTQCMEELLTVLENSEPHVLNIEFEGLNFHETSSVLKNLKNVEEIQLSMYSIQELSGIEKLVELEQWKTAKTLDISSHEDIEMDIKDLLHFQSIDVRLKSFSVQDAVKVKETLELRTSDFRSGTFRVLNTDTRKIGKVFNPKYTDAANNTFNFKTKNSSFEITMCSKEIYVKRKL,not soluble
9,MAKYFGTDGIRGEVANSTITVEFTQKLGNAVGSLINQKNYPKFVIVGQDTRSSGGFLKFALVSGLNAAGIDVLDLGVVPTPVVAFMTVKHRAAAGFVITASHNKFTDNGIKLFSSNGFKLDDALEEEVEDMIDGDFIYQPQFKFGSYKILANAIDEYIESIYSRFAKFVNYKGKVVVDCAHGAASHNFEALLDKFGINYVSIASNPDGLNINVGCGATCVSNIKKAVKEQKADLGISLDGDADRIIIVDENGQEIDGDGILNILAQYSDICGGTNGIVGTQMTNMSYENHYRANKIPFIRSKVGDRYVLEDLVKYGYKIGGESSGHVINLNFGTTGDGLFTAIQLLAIFSQADKPVSEFKLQGELMQQTLINVPLTKKVAREDLQKVASDVNDVEKRLGNRGRVLLRPSGTEPVLRVMVEADDKSLATNEAEYLVEKVKQKLV,soluble
10,MALIGRQTTIQMIDLEPELPTQKDYQSDILRELTQIRNENLEYNRLEVYVLELEQIMRIRMIVDLLDLGGRLNSETLLQMCYRLVNQETDLENLRNFRDSQFAQEEQRRDRLREIGQRIFNRFEQQQEEAAGNREGSEAGERPSKENIEFRIWRFLSVLQHQDGLERLDELEREIAVRREMNAADQFQEGQDFFARINPDIVAEGIPHHNNRDNIPIERQYRTEFIQLANDLQSPPDDVRLDVFRRLIDLGVQFQESRLEQDRQRIQEEPQRQREGEIMDQLNDSVKGDMRRLNPMAPGNASGNIQQEGAGIETDVDVDDELEDEYSGSDSSQDVEEVPEESSERYVADTGSATNQPSSSTSEPNAGNEEVEDPSQRTRKRGNGSELSDAKRTN,soluble
11,MGSDKIHHHHHHMYMIKQNFTTKVYPLKQFEGEYSEVAYAGDSQADDVIVFIHGALLTYKIMTMFEPYFRDYKLIFINCPSRGRSSDLDRDTHTLDDYAARIYDVLTQIVKEQQIKELSIVGYSMGGMIATRLLKYNTLPVSHLIYLHSAAKITPDASMLARLFTSESKRAVLKDEIKAVKNLPQYILDKTIYAQKENALDLVQFIAPIKTIITDMIYTINTDYLPDIDEIKQFPKILFMSGKEDQIIPYTDSQATLEKFKALGGETKEVIYPGIGHIDFPSVLETQSDGQTGVVDEIKAWISKK,not soluble
12,MFLDMLSLIRGQKIKLNDALQGQSSFYIQIHYQAAFDLDIASFGLDSQYRLSDERYMTFYNQPETPCQAVRLIENQNKCSRFLVDLAKLPATIQHLVLTAAIDGQNIMSQLQQVTVQILNLQLQPIAELKLDASIFDQERATMLIEIYRKEGIWRLAAIGQGFNAGLAALIQHFGGEVAEEPTAQQTTPVAPQSNIDLKKKLSLQKAEKTGNASIIDLTKKSLVQLEKKKLLGVTARVALVLDASGSMDGQYRRGDVQKVVNRLMPLAIHFDDDGSFECWAFAAETTQLDDVTLSNVNDFINSTQRGWKNWQVGARYNEEIPAIEAVINYFQKFQDQIPTYVLFISDGGVGSRRQMQKILSQAAKLPIFWQFVGIGGRNYGALEKLDEMSGRIVDNCNFFSLDRIDGVSDERLYELLLQEFPDWLIAARQHQIVRNLEHHHHHH,not soluble
13,MAQVKAEYDFQSQPNTGELSISAGEVLTVIRENIDGGWIEGRNVRGSVGLFPESYVTPYQASRPPPVLPPPLPPTSSGPPAASSRPFDDWGGASEVAAPPSYGAQHHHQPTPSVPEVTRSSYPSQNDDFDDEWTDEDDEQEPTRPNVQSSIGSNSRRDLSRSHSEHGGPDRGSNKVNKNINRFSNFVKSGVEAYVIGESKTTSQISERHEVVMNNGIIQWKPIQQYYTCIVDKPKKESKLKGLKSFIAYSITSSLTNIQRQVSRRYKHFDWLHEQLSAKYVLIPIPPLPEKQVAGRYEEDLIDHRKHILQLWVNKICRHPVLSQSEVWLHFISCTDEKDWKNGKRRAEKDEYIGGAFLNCITVPHQPLDPNNVDMQVERFQRSVKTSEEAMRVMQERMNMFQKVFAGPVKQNWQKMGSAFKTLQQSFEIDETVASRRLTEALAYTASEYHEIGQVFDAHTKNDMEPVLENLYSYKGTVQNVPDIIQVHKQAVQKFRDSEGRLSSAEAEKMKQRIDAMSYTVIAEVQHQTAEKVEDMKSTMGTYLKKQAMFYQEVATKLTSLAARYD,not soluble
14,NSGQSGAESDIRRKSEEIAAHSNEPSAEKPKEEKKWYDRIGIRGYTQFRYSSTVSGDKDAVSYWPDKSVGEDGSFLIRRARLVIFGDINDHLSLYIQPDFASTPSGSSTGHFAQLRDAYADIHFDKNKEFRVRVGQSKIPYSFENLQSSQNRLALDRNDAMNSCCRDERDIGAFFYWAPTHIRDRFKEVMAKNLKGSGDYGMFAFGIYNGQGANRLEGNNGVHMVTRFTYPHQFSNGQILEAGIQALRGRFVPSTGPAGGFTPVMDAPEKGFKDERVGVHAVLYPQPFGLQAEWNWGRGPQLNDGQTMLTESSLNGGYVLATYKIDGLRWGTLFPFVKWQHFKGGQKFERNAPRNHVNDLEFGLEWQVMKEIELTAVYHMMNRTNVASAPYERYKADVLRFQLQWNY,not soluble
15,MVVDTEYYDLLGVSTTASSIEIKKAYRKKSIQEHPDKNPNDPTATERFQAISEAYQVLGDDDLRAKYDKYGRKEAIPQGGFEDAAEQFSVIFGGDAFASYIGELMLLKNLQKTEELNAEDEAEKEKENVETMEESPADGKTNGTTNAVDAALGNTNEKDDKNKARTTSGNLTVHDGNKKNEQVGAEAKKKKTKLEQFEEEQEVEKQKRVDQLSKTLIERLSILTESVYDDACKDSFKKKFEEEANLLKMESFGLDILHTIGDVYYEKAEIFLASQNLFGMGGIFHSMKAKGGVFMDTLRTVSAAIDAQNTMKELEKMKEASTNNGPLFDKDGNEQIKPTTEELAQQEQLLMGKVLSAAWHGSKYEITSTLRGVCKKVLEDDSVSKKTLIRRAEAMKLLGEVFKKTFRTKVEQEEAQIFEELVAEATKKKRHT,not soluble
